From publication doi:10.1101/2025.08.18.670068 (2025)

Legend:
Assay in all cases: SPR
[1] = biological target: soluble CCR8 analogue BM3
[2] = biological target: soluble CCR8 analogue BM1
[3] = biological target: soluble CCR8 analogue BM7
[4] = biological target: soluble CCR8 analogue BM6
[5] = biological target: soluble CCR8 analogue BM5

B1: mAb1 in full length human IgG1 format (antibody, V domains shown)
VH: QSVEESGGRLVTPGTPLTLTCTVSGFSLSNYAMIWVRQAPGEGLEWVGTISLGGYTYYANWAKGRFTISKTSTTVDLKISSPTTEDTATYFCARARWSTDSAIYTYAFDPWGPGTLVTVSS
VL: AYDMTQTPASVEVAVGGTVTIKCQASQSISSYLSWYQQKPGQRPELLIYKASTLASGVSSRFKGSGSGTQFTLTISDLEAADAATYYCQQGYTSSNIDNIFGGGTEVVVK
[1]
  Kd: 154 nM
[2]
  Kd: 267 nM
[3]
  Kd: 252 nM
[4]
  Kd: 552 nM
[5]
  Kd: 629 nM
